Assay [1] concerns the target T1, Syx-4 (residues 1-274, the cytoplasmic fragment) (human, UniProt Q12846 1-274).
T1 construct: syntaxin-4, human, cytoplasmic fragment, residues 1-274; Cloned into pET28a; 'purified as previously described'; also called cytoplasmic fragment of Syx-4; source: E. coli BL21 DE3, purified (Nickel-NTA)
Put plainly: pull-down; 2 μM GST-VAMP-7 SNARE motif with 3 μM Syx-4 (1-274) and/or 3 μM SN-23 on glutathione Sepharose 4B, 4°C, 5 h; washed with 20 mM Tris-HCl pH 8.0, 150 mM NaCl, 1% Triton X-100; SDS-PAGE. The note with it: both partners purified.

Assay [2] has as its target T2, recombinant SN-23, mutant of full-length human SNAP-23 (C79A, C80A, C83A, C85A, C87A, C112A) (human, UniProt O00161 1-211, C79A | C80A | C83A | C85A | C87A | C112A).
T2 construct: SNAP-23, human, full length (residues 1-211) with six cysteines changed to alanine; Cloned into pET28a; source: E. coli BL21 DE3, purified (Nickel-NTA)
T2 sequence (looked up): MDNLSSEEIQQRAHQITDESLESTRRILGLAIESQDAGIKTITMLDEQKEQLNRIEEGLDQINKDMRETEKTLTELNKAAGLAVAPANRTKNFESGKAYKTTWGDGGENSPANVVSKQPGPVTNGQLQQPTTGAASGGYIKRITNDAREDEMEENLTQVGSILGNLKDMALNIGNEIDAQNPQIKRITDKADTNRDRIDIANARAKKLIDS
The description is as above. To be noted: both partners purified.

B1: GST-tagged VAMP-7 SNARE motif (residues 125-185) (domain or fragment, human, UniProt P51809 125-185, looked up)
chain: KVMETQAQVDELKGIMVRNIDLVAQRGERLELLIDKTENLVDSSVTFKTTSRNLARAMCMK
notes: pGEX-6p-1; PreScission-cleavable GST tag, not cleaved for the pull-down; also called GST-VAMP-7 SNARE motif; source: E. coli BL21 DE3, purified (glutathione Sepharose 4B, eluted with glutathione); not shown: GST, N-terminal, kept
Take B1: the binding result in assay [1] and in assay [2] was “binds” each time.

The values are drawn from paper PMC10497535, “Identification of the SNARE complex that mediates the fusion of multivesicular bodies with the plasma membrane in exosome secretion” (Journal of Extracellular Vesicles, 2023).
